# Measured values: paper PMC7321154, “Pharmacokinetic Properties of ^68Ga-labelled Folic Acid Conjugates: Improvement Using HEHE Tag” (Molecules, 2020)
# Numbered stars: 1 amine (or outer) side, 2 acyl side, 3 side chain; on linkers, the order of the positions; unused ones are H or OH. Peptide text beside a SMILES is read from it. * marks the point of attachment. NODAGA = O=C(O)CN1CCN(CC(=O)O)CCN(C(CCC(=O)*)C(=O)O)CC1; Pteroyl = Nc1nc2ncc(CNc3ccc(C(=O)*)cc3)nc2c(=O)[nH]1; γGlu = O=C(O)[C@H](CCC(=O)[*:2])N[*:1]
# What was measured:
# [1] = in vitro; assay type: in vitro ADME; conditions: human, plasma
# Description: The plasma stability of [^68Ga]Ga-FA-I and [^68Ga]Ga-FA-II was determined in human plasma in vitro.
# [2] = in vivo; design: species or system Wistar rats; conditions: Wistar, rat, iv, total radioactivity
# Description: Normal biodistribution studies were carried out in healthy Wistar rats. Animals were grouped (N = 5/group) and injected with 10−12 MBq/100 μL of each ^68Ga-NODAGA-folate conjugate into the tail vein. Nonspecific uptake in FR-positive organs (e.g., kidneys) was determined by 5 min of folic acid pre-injection (36 μM, 100 μL) in PBS pH 7.4. At preselected time points of (30, 60, 90, 120 min for rats and 30, 60 min for mice) animals were sacrificed. The organs of interest were collected, blotted dry, weighed, and counted using a WIZARD^2 automatic γ-counter (PerkinElmer). The results are expressed as the percentage of injected activity dose per gram (% ID/g ± SD) for each organ/tissue.
# [3] = in vivo; design: species or system BALB/c nude mice; conditions: female, BALB/c nude, mouse, iv, total radioactivity; for tissue to tissue ratio at 0.5 h / tissue to tissue ratio at 1 h: Differential uptake ratio (DUR)
# Description: For the experimental tumor models athymic female BALB/c nude mice (4−5 weeks old, 18−20 g) were subcutaneously inoculated in the right flank with suspended 2 × 10^6 KB cells (150 μL, Opti-MEM (Gibco, Thermo Fisher Scientific, Waltham, MA, USA) and 50% Matrigel (Becton Dickinson, Franklin Lakes, NJ, USA). Tumors were allowed to grow for 12−16 days (tumor weight 500−900 mg). Animals were grouped (N = 3–5/group) and injected with 10−12 MBq/100 μL of each ^68Ga-NODAGA-folate conjugate into the tail vein. At preselected time points of (30, 60, 90, 120 min for rats and 30, 60 min for mice) animals were sacrificed. The organs of interest were collected, blotted dry, weighed, and counted using a WIZARD^2 automatic γ-counter (PerkinElmer). The results are expressed as the percentage of injected activity dose per gram (% ID/g ± SD) for each organ/tissue.
structure (smiles),measurement,setting,value
"Nc1nc2ncc(CNc3ccc(C(=O)N[C@@H](CCC(=O)N[C@@H](CCCCNC(=O)CCC(C(=O)O)N4CCN(CC(=O)O)CCN(CC(=O)O)CC4)C(=O)N[C@@H](Cc4c[nH]cn4)C(=O)N[C@@H](CCC(=O)O)C(=O)N[C@@H](Cc4c[nH]cn4)C(=O)N[C@@H](CCC(=O)O)C(=O)O)C(=O)O)cc3)nc2c(=O)[nH]1 (stereo partly shown) [[^68Ga]Ga-FA-II, metal not drawn] ({Pteroyl-γGlu}-K(NODAGA)HEHE-OH)",remaining at 3 h,[1],> 99%
same,tissue uptake at 1 h,[2],4.27 ± 0.93 %ID/g
same,tissue uptake at 0.5 h,[2]; accumulation in blood,0.28 ± 0.03 %ID/g
same,tissue uptake at 1 h,[2]; accumulation in blood,0.22 ± 0.06 %ID/g
same,tissue uptake at 1.5 h,[2]; accumulation in blood,0.09 ± 0.01 %ID/g
same,tissue uptake at 2 h,[2]; accumulation in blood,0.06 ± 0.02 %ID/g
same,tissue uptake at 0.5 h,[2]; accumulation in brain,0.04 ± 0.01 %ID/g
same,tissue uptake at 1 h,[2]; accumulation in brain,0.02 ± 0.01 %ID/g
same,tissue uptake at 1.5 h,[2]; accumulation in brain,0.02 ± 0.01 %ID/g
same,tissue uptake at 2 h,[2]; accumulation in brain,0.01 ± 0.01 %ID/g
same,tissue uptake at 0.5 h,[2]; accumulation in heart,0.27 ± 0.07 %ID/g
same,tissue uptake at 1 h,[2]; accumulation in heart,0.16 ± 0.08 %ID/g
same,tissue uptake at 1.5 h,[2]; accumulation in heart,0.1 ± 0.01 %ID/g
same,tissue uptake at 2 h,[2]; accumulation in heart,0.08 ± 0.01 %ID/g
same,tissue uptake at 0.5 h,[2]; accumulation in kidneys,4.03 ± 0.94 %ID/g
same,tissue uptake at 1 h,[2]; accumulation in kidneys,4.64 ± 1.8 %ID/g
same,tissue uptake at 1.5 h,[2]; accumulation in kidneys,4.42 ± 1.27 %ID/g
same,tissue uptake at 2 h,[2]; accumulation in kidneys,4.34 ± 0.18 %ID/g
same,tissue uptake at 0.5 h,[2]; accumulation in liver,0.18 ± 0.06 %ID/g
same,tissue uptake at 1 h,[2]; accumulation in liver,0.12 ± 0.06 %ID/g
same,tissue uptake at 1.5 h,[2]; accumulation in liver,0.07 ± 0.01 %ID/g
same,tissue uptake at 2 h,[2]; accumulation in liver,0.05 ± 0.01 %ID/g
same,tissue uptake at 0.5 h,[2]; accumulation in lungs,0.28 ± 0.06 %ID/g
same,tissue uptake at 1 h,[2]; accumulation in lungs,0.24 ± 0.07 %ID/g
same,tissue uptake at 1.5 h,[2]; accumulation in lungs,0.12 ± 0.02 %ID/g
same,tissue uptake at 2 h,[2]; accumulation in lungs,0.11 ± 0.02 %ID/g
same,tissue uptake at 1 h,[2]; accumulation in muscle,0.06 ± 0.01 %ID/g
same,tissue uptake at 1.5 h,[2]; accumulation in muscle,0.04 ± 0.01 %ID/g
same,tissue uptake at 2 h,[2]; accumulation in muscle,0.04 ± 0.01 %ID/g
same,tissue to tissue ratio at 0.5 h,[3]; Tumor-to-blood,1.6 ± 0.5
same,tissue to tissue ratio at 1 h,[3]; Tumor-to-blood,6.1 ± 2.5
same,tissue to tissue ratio at 0.5 h,[3]; Tumor-to-kidneys,0.39 ± 0.18
same,tissue to tissue ratio at 1 h,[3]; Tumor-to-kidneys,0.79 ± 0.28
same,tissue to tissue ratio at 0.5 h,[3]; Tumor-to-muscle,7.1 ± 2.8
same,tissue to tissue ratio at 1 h,[3]; Tumor-to-muscle,28.9 ± 13.7
same,tissue uptake at 0.5 h,[3]; accumulation in bladder,1.46 ± 0.53 %ID/g
same,tissue uptake at 1 h,[3]; accumulation in bladder,0.96 ± 0.46 %ID/g
same,tissue uptake at 0.5 h,[3]; accumulation in brain,0.09 ± 0.03 %ID/g
same,tissue uptake at 1 h,[3]; accumulation in brain,0.1 ± 0.03 %ID/g
same,tissue uptake at 0.5 h,[3]; accumulation in intestines,0.46 ± 0.15 %ID/g
same,tissue uptake at 1 h,[3]; accumulation in intestines,0.45 ± 0.13 %ID/g
same,tissue uptake at 0.5 h,[3]; accumulation in kidneys,4.47 ± 0.97 %ID/g
same,tissue uptake at 1 h,[3]; accumulation in kidneys,4.64 ± 0.26 %ID/g
same,tissue uptake at 0.5 h,[3]; accumulation in liver,0.51 ± 0.13 %ID/g
same,tissue uptake at 1 h,[3]; accumulation in liver,0.27 ± 0.08 %ID/g
same,tissue uptake at 0.5 h,[3]; accumulation in muscle,0.24 ± 0.04 %ID/g
